From article PMC7717906 (eLife, 2020)

Biological target: the molecule itself
Assay: SEC

B1: His-MoOsm1 (enzyme)
chain: MAEFVRAQIFGTTFEITSRYSDLQPVGMGAFGLVCSARDQLTNQNVAIKKIMKPFSTPVLAKRTYRELKLLKHLKHENVISLSDIFISPLEDIYFVTELLGTDLHRLLTSRPLEKQFIQYFLYQIMRGLKYVHSAGVVHRDLKPSNILVNENCDLKICDFGLARIQDPQMTGYVSTRYYRAPEIMLTWQKYDVEVDIWSAGCIFAEMLEGKPLFPGKDHVNQFSIITELLGTPPDDVINTIASENTLRFVKSLPKRERQPLKNKFKNADPSAIDLLERMLVFDPKKRITATEALAHEYLTPYHDPTDEPIAEEKFDWSFNDADLPVDTWKIMMYSEILDYHNAEAGMQQMDDQFTGQ
stoichiometry N: 2
